These results are taken from patent US6703362 (CYTOGEN, dated 2004).

The target of test [1] is T1, hPEPT1 receptor domain (human PEPT1, amino acid residues 391-571), His-tag fusion protein (human, UniProt P46059 391-571).
T1 construct: purified under denaturing conditions; also called recombinant hPEPT1; not shown: poly-histidine tag (pET vector) at the NH2-terminal end
T1 sequence: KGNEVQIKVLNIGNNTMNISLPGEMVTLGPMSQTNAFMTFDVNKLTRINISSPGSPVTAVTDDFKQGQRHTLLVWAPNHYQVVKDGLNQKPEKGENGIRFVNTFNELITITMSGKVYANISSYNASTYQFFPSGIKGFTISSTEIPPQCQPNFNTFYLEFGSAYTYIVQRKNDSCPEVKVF
As to the kind of experiment: phage ELISA, plate coated with hPEPT1 domain. How it is done: (§1) 6.6. Receptor ELISA Procedure 96 well plates were coated overnight with GIT receptor, BSA and, optionally, IDE (insulin degrading enzyme, an irrelevant His-fusion protein)or hTF. The plates were blocked for one hour with 0.5% BSA-PBS. After clarification, the amplified phage were diluted 1:100 in […] plus 0.05% Tween 20 in PBS and added to the plates. Following incubation of the plates on a rotator for 1 to 2 hours, the plates were washed 5 times with 1% BSA plus 0.05% Tween 20 in PBS. […] After the plates were washed 5 times, as described above, TMB substrate was added to the wells. The plates were read at 650 nm absorbance.

In test [2] the target is T1, hPEPT1 receptor domain (human PEPT1, …). As to the kind of experiment: phage ELISA, OD on hPEPT1 over OD on BSA. How it is done:
as §1
(ELISA stands for enzyme-linked immunosorbent assay.)

In test [3] the target is T2, D2H receptor domain (human D2H transporter, amino acid residues 387-685), His-tag fusion protein (human, UniProt Q07837 387-685).
T2 construct: purified under denaturing conditions; also called recombinant D2H; not shown: poly-histidine tag (pET vector) at the NH2-terminal end
T2 sequence: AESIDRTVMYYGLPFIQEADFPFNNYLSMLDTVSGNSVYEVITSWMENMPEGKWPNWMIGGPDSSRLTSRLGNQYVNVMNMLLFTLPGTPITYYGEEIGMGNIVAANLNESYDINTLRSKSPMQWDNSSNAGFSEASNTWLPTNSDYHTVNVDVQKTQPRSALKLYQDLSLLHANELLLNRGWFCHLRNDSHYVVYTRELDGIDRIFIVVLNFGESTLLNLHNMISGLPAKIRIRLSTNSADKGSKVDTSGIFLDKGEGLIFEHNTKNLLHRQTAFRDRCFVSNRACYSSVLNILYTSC
The test is described as follows: phage ELISA, plate coated with D2H domain. The method, then: as §1
Binding to fixed Caco-2 cells, D2H and BSA was examined.

The target of test [4] is T3, HPT1 receptor domain (human intestinal peptide-associated transporter HPT1, amino acid residues 29-273), … (human, UniProt Q12864 29-273).
T3 construct: purified under denaturing conditions; also called recombinant HPT1; not shown: poly-histidine tag (pET vector) at the NH2-terminal end
T3 sequence: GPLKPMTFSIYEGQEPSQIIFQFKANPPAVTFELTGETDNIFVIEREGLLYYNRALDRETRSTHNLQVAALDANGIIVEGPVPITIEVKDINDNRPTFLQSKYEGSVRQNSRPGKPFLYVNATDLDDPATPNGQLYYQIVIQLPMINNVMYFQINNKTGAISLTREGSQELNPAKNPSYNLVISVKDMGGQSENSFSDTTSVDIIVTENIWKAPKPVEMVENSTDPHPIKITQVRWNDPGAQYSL
As to the kind of experiment: phage ELISA, plate coated with HPT1 domain. The method, then: as §1

For test [5], the target named is T3, HPT1 receptor domain (human intestinal …). As to the kind of experiment: phage ELISA, OD on HPT1 over OD on BSA. The method, then:
as §1

B1: 5PAX5 (peptide)
peptide: RGSTGTAGGERSGVLNLHTRDNASGSGFKPWYPSNRGHKAETVESCLAKPHTENSFTNVWKDDKTLDRYANYEGCLWNATGVVVCTGDETQCYGTWVPIGLAIPENEGGGSEGGGSEGGGSEGGGTKPPEYGDTPIPGYTYINPLDGTYPPGTEQNPANPNPSLEESQPLNTFMFQNNRFRNRQGALTVYTGTVTQGTDPVKTYYQYTPVSSKAMYDAYWNGKFRDCAFHSGFNEDPFVCEYQGQSSDLPQPPVNAGGGSGGGSGGGSEGGGSEGGGSEGGGSEGGGSGGGSGSGDFDYEKMANANKGAMTENADENALQSDAKGKLDSVATDYGAAIDGFIGDVSGLANGNGATGDFAGSNSQMAQVGDGDNSPLMNNFRQYLPSLPQSVECRPFVFSAGKPYEFSIDCDKINLFRGVFAFLLYVATFMYVFSTFANILRNKES
notes: Assayed as M13 phage clone displaying the insert
In the case of B1, the OD in test [1] came to 0.15 OD. The molecule also displayed a PEPT1/BSA in test [2] of 4 ratio.

B2: DCX39 (peptide)
peptide: SGSLNAWQPRSWVGGAFRSHANNNLNPKPTMVTRHPTAETVESCLAKPHTENSFTNVWKDDKTLDRYANYEGCLWNATGVVVCTGDETQCYGTWVPIGLAIPENEGGGSEGGGSEGGGSEGGGTKPPEYGDTPIPGYTYINPLDGTYPPGTEQNPANPNPSLEESQPLNTFMFQNNRFRNRQGALTVYTGTVTQGTDPVKTYYQYTPVSSKAMYDAYWNGKFRDCAFHSGFNEDPFVCEYQGQSSDLPQPPVNAGGGSGGGSGGGSEGGGSEGGGSEGGGSEGGGSGGGSGSGDFDYEKMANANKGAMTENADENALQSDAKGKLDSVATDYGAAIDGFIGDVSGLANGNGATGDFAGSNSQMAQVGDGDNSPLMNNFRQYLPSLPQSVECRPFVFSAGKPYEFSIDCDKINLFRGVFAFLLYVATFMYVFSTFANILRNKES
notes: as for B1
Regarding B2, in test [3], the OD came out at 0.299 OD.

B3: HAX40 (peptide)
peptide: REFAERRLWGCDDLSWRLDAEGCGPTPSNRAVKHRKPRPRSPALAETVESCLAKPHTENSFTNVWKDDKTLDRYANYEGCLWNATGVVVCTGDETQCYGTWVPIGLAIPENEGGGSEGGGSEGGGSEGGGTKPPEYGDTPIPGYTYINPLDGTYPPGTEQNPANPNPSLEESQPLNTFMFQNNRFRNRQGALTVYTGTVTQGTDPVKTYYQYTPVSSKAMYDAYWNGKFRDCAFHSGFNEDPFVCEYQGQSSDLPQPPVNAGGGSGGGSGGGSEGGGSEGGGSEGGGSEGGGSGGGSGSGDFDYEKMANANKGAMTENADENALQSDAKGKLDSVATDYGAAIDGFIGDVSGLANGNGATGDFAGSNSQMAQVGDGDNSPLMNNFRQYLPSLPQSVECRPFVFSAGKPYEFSIDCDKINLFRGVFAFLLYVATFMYVFSTFANILRNKES
notes: Assayed as M13 phage clone displaying the insert; also called H44
In turn, B3 yielded an OD in test [4] of 0.991 OD. Besides, the HPT/BSA in test [5] was found to be 15 ratio.

B4: P31 (peptide)
peptide: SARDSGPAEDGSRAVRLNGVENANTRKSSRSNPRGRRHPAETVESCLAKPHTENSFTNVWKDDKTLDRYANYEGCLWNATGVVVCTGDETQCYGTWVPIGLAIPENEGGGSEGGGSEGGGSEGGGTKPPEYGDTPIPGYTYINPLDGTYPPGTEQNPANPNPSLEESQPLNTFMFQNNRFRNRQGALTVYTGTVTQGTDPVKTYYQYTPVSSKAMYDAYWNGKFRDCAFHSGFNEDPFVCEYQGQSSDLPQPPVNAGGGSGGGSGGGSEGGGSEGGGSEGGGSEGGGSGGGSGSGDFDYEKMANANKGAMTENADENALQSDAKGKLDSVATDYGAAIDGFIGDVSGLANGNGATGDFAGSNSQMAQVGDGDNSPLMNNFRQYLPSLPQSVECRPFVFSAGKPYEFSIDCDKINLFRGVFAFLLYVATFMYVFSTFANILRNKES
notes: as for B1
Turning to B4, the OD in test [1] was determined as 0.807 OD. The same molecule returned a PEPT1/BSA in test [2] of 11 ratio.

B5: DCX45 (peptide)
peptide: SVGNDKTSRPVSFYGRVSDLWNASLMPKRTPSSKRHDDGAETVESCLAKPHTENSFTNVWKDDKTLDRYANYEGCLWNATGVVVCTGDETQCYGTWVPIGLAIPENEGGGSEGGGSEGGGSEGGGTKPPEYGDTPIPGYTYINPLDGTYPPGTEQNPANPNPSLEESQPLNTFMFQNNRFRNRQGALTVYTGTVTQGTDPVKTYYQYTPVSSKAMYDAYWNGKFRDCAFHSGFNEDPFVCEYQGQSSDLPQPPVNAGGGSGGGSGGGSEGGGSEGGGSEGGGSEGGGSGGGSGSGDFDYEKMANANKGAMTENADENALQSDAKGKLDSVATDYGAAIDGFIGDVSGLANGNGATGDFAGSNSQMAQVGDGDNSPLMNNFRQYLPSLPQSVECRPFVFSAGKPYEFSIDCDKINLFRGVFAFLLYVATFMYVFSTFANILRNKES
notes: as for B1
Consider B5, for which the OD in test [3] came out at 0.336 OD.

B6: P90 (peptide)
peptide: SSADAEKCAGSLLWWGRQNNSGCGSPTKKHLKHRNRSQTSSSSHAETVESCLAKPHTENSFTNVWKDDKTLDRYANYEGCLWNATGVVVCTGDETQCYGTWVPIGLAIPENEGGGSEGGGSEGGGSEGGGTKPPEYGDTPIPGYTYINPLDGTYPPGTEQNPANPNPSLEESQPLNTFMFQNNRFRNRQGALTVYTGTVTQGTDPVKTYYQYTPVSSKAMYDAYWNGKFRDCAFHSGFNEDPFVCEYQGQSSDLPQPPVNAGGGSGGGSGGGSEGGGSEGGGSEGGGSEGGGSGGGSGSGDFDYEKMANANKGAMTENADENALQSDAKGKLDSVATDYGAAIDGFIGDVSGLANGNGATGDFAGSNSQMAQVGDGDNSPLMNNFRQYLPSLPQSVECRPFVFSAGKPYEFSIDCDKINLFRGVFAFLLYVATFMYVFSTFANILRNKES
notes: as for B1
For B6, the OD in test [1] is 1.12 OD. Also, the PEPT1/BSA in test [2] was 9 ratio.

B7: HAX9 (peptide)
peptide: SREEANWDGYKREMSHRSRFWDATHLSRPRRPANSGDPNAETVESCLAKPHTENSFTNVWKDDKTLDRYANYEGCLWNATGVVVCTGDETQCYGTWVPIGLAIPENEGGGSEGGGSEGGGSEGGGTKPPEYGDTPIPGYTYINPLDGTYPPGTEQNPANPNPSLEESQPLNTFMFQNNRFRNRQGALTVYTGTVTQGTDPVKTYYQYTPVSSKAMYDAYWNGKFRDCAFHSGFNEDPFVCEYQGQSSDLPQPPVNAGGGSGGGSGGGSEGGGSEGGGSEGGGSEGGGSGGGSGSGDFDYEKMANANKGAMTENADENALQSDAKGKLDSVATDYGAAIDGFIGDVSGLANGNGATGDFAGSNSQMAQVGDGDNSPLMNNFRQYLPSLPQSVECRPFVFSAGKPYEFSIDCDKINLFRGVFAFLLYVATFMYVFSTFANILRNKES
notes: as for B1
On to B7, for which, in test [4], the OD came out at 0.382 OD. In test [5], this molecule showed an HPT/BSA of 5 ratio.

B8: HCA3 (peptide)
peptide: RHISEYSFANSHLMGGESKRKGCGINGSFSPTCPRSPTPAFRRTAETVESCLAKPHTENSFTNVWKDDKTLDRYANYEGCLWNATGVVVCTGDETQCYGTWVPIGLAIPENEGGGSEGGGSEGGGSEGGGTKPPEYGDTPIPGYTYINPLDGTYPPGTEQNPANPNPSLEESQPLNTFMFQNNRFRNRQGALTVYTGTVTQGTDPVKTYYQYTPVSSKAMYDAYWNGKFRDCAFHSGFNEDPFVCEYQGQSSDLPQPPVNAGGGSGGGSGGGSEGGGSEGGGSEGGGSEGGGSGGGSGSGDFDYEKMANANKGAMTENADENALQSDAKGKLDSVATDYGAAIDGFIGDVSGLANGNGATGDFAGSNSQMAQVGDGDNSPLMNNFRQYLPSLPQSVECRPFVFSAGKPYEFSIDCDKINLFRGVFAFLLYVATFMYVFSTFANILRNKES
notes: as for B1
With B8, the HPT1/BSA in test [5] worked out at 1 ratio.

B9: DCX42 (peptide)
peptide: RYSGLSPRDNGPACSQEATLEGCGAQRLMSTRRKGRNSRPGWTLAETVESCLAKPHTENSFTNVWKDDKTLDRYANYEGCLWNATGVVVCTGDETQCYGTWVPIGLAIPENEGGGSEGGGSEGGGSEGGGTKPPEYGDTPIPGYTYINPLDGTYPPGTEQNPANPNPSLEESQPLNTFMFQNNRFRNRQGALTVYTGTVTQGTDPVKTYYQYTPVSSKAMYDAYWNGKFRDCAFHSGFNEDPFVCEYQGQSSDLPQPPVNAGGGSGGGSGGGSEGGGSEGGGSEGGGSEGGGSGGGSGSGDFDYEKMANANKGAMTENADENALQSDAKGKLDSVATDYGAAIDGFIGDVSGLANGNGATGDFAGSNSQMAQVGDGDNSPLMNNFRQYLPSLPQSVECRPFVFSAGKPYEFSIDCDKINLFRGVFAFLLYVATFMYVFSTFANILRNKES
notes: as for B1
In test [3], B9 showed an OD of 0.158 OD.
